Measured values as given in patent US20030119155A1.

Biological target: Methanol dehydrogenase (MDH) of Bacillus brevis S1 strain (NCIMB 12524) (Bacillus brevis S1 strain (NCIMB 12524))
Assay: cell-based or functional assay

NADH producing rate (increase of absorbance at 340 nm after methanol addition) in cell extract, against the pHY300PLK vector control: 5 times
Substance: Amd (Activator of methanol dehydrogenase), YqkG gene product of Bacillus subtilis 168 strain (from UniProt P54570 1-185)
